Test results taken from patent US20240010720A1 (IOMX THERAPEUTICS, published 2024).
Where a chain is given by its changes, count along the chain named.

B1: A-011 (scFv format) (scFv, V domains shown)
VH: QVQLVESGGGVVQPGRSLRLSCAASGFTFSSYAMHWVRQAPGKGLEWVAVISYDGSNKYYADSVKGRFTISRDNSKNTLYLQMNSLRAEDTAVYYCAEGGALNYYGMDVWGQGTTVTVSS
VL: SSELTQDPGVSVALGQTVRITCQGDSLRHFYATWYQQKPGQAPILVIYGKNNRPSGIPDRFSGSSSEDTASLTITGAQAEDEADYYCQSRDPRNNHLIFGGGTKLIVL
notes: scFv
B2: A-009 (scFv format) (scFv, V domains shown)
VH: QVQLVQSGAEVKKPGSSVKVSCKASGGTFSSYAISWVRQAPGQGLEWMGGIIPIFGTANYAQKFQGRVTITADESTSTAYMELSSLRSEDTAVYYCARGRGFGELYFDYWGQGTLVTVSS
VL: ETTLTQSPATLSVSPGERATLSCRASQGVRSNIAWYQQKPGQAPRLLIYDSSTRATGIPARFSGSGSGTEFTLTISSLQSEDFAVYSCQQYKNWPRTFGQGTKVEIK
notes: scFv
B3: A-025 (scFv format) (scFv, V domains shown)
VH: B2 VH with S84T, R100G, G101W, F102L, G103R, E104Q, L105N, Y106W, Y109P
VL: SSELTQDPAVSVALGQTVRITCQGDSLRSYYASWYQQKPGQAPVLVIYGKNNRPSGIPDRFSGSSSGNTASLTITGAQAEDEADYYCNSRDSSGNHPRVFGGGTKLTVL
notes: scFv
B4: A-007 (scFv format) (scFv, V domains shown)
VH: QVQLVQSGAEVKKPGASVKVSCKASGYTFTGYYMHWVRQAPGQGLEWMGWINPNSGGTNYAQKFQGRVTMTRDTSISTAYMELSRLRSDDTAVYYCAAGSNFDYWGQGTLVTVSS
VL: QSALTQPASVSGSPGQSITIACTGSSSDIGSFSYVSWYQQRPGKAPTLIIYGVNNRPLGVSRRFSGSKSGNTASLSISGLQAEDEADYYCSSYTRRSTVIFGGGTKLTVL
notes: scFv
B5: A-016 (scFv format) (scFv, V domains shown)
VH: QVQLQESGAEVKKPGASVKVSCKASGYTFTGYYMHWVRQAPGQGLEWMGGIIPIFGTANYAQKFQGRVTITADESTSTAYMELSSLRSEDTAVYYCAGAGMELTRSGAYYYYGMDVWGQGTTVTVSS
VL: QSALTQPASVSGSPGQSITISCTGTSSDIGGYTFVSWYQQHPGKAPKVMIHDVNNRPSGISNRFSGSKSGNTASLTISGLQAEDEADYYCSSVTSTNTYVFGTGTKVTVL
notes: scFv
B6: A-023 (scFv format) (scFv, V domains shown)
VH: QVQLVQSGAEVKKPGSSVKVSCKASGGTFSSYAISWVRQAPGQGLEWMGGIIPIFGTANYAQKFQGRVTITADESTSTAYMELSSLRSEDTAVYYCARPKYSSGWFYYYGMDVWGQGTTVTVSS
VL: QSVLTQPPSVSAAPGQKVTISCSGSSSNIGNNYVSWYQQLPGTAPKLLIYDNNKRPSGIPDRFSGSKSGTSATLGITGLQTGDEADYYCGTWDSSLSVVFGGGTKLTVL
notes: scFv
B7: A-022 (scFv format) (scFv, V domains shown)
VH: EVQLLESGPGLVKPSQTLSLTCTVSGGSISSGGYYWSWIRQHPGKGLEWIGYIYYSGSTYYNPSLKSRVTISVDTSKNQFSLKLSSVTAADTAVYYCARASRSTDYYFDYWGQGTLVTVSS
VL: QPGLTQPPSMSYGLGQTATLTCTGNRNNIGDQGAAWLQQHQGHPPKLLSYRNNNGPSGISERLSASRSGNTASLTISGLQPEDEADYYCSAWDSSLRAWVFGGGTKLTVL
notes: scFv
B8: A-015 (scFv format) (scFv, V domains shown)
VH: not shown
VL: QPVLTQSPSASASLGASVKLTCTLSSGHTNYAIAWRQQQPGKAPRYLMLLNSDGSHTRGGGIPDRFSGSSSGAERYLTISSLQSEDEADYYCMIWHNNAWVFGGGTKLAVL
notes: scFv
B9: A-010 (scFv format) (scFv, V domains shown)
VH: QVQLVQSGAEVKKPGASVKVSCKASGYTFTSYGISWVRQAPGQGLEWMGWISAYNGNTNYAQKLQGRVTMTTDTSTSTAYMELRSLRSDDTAVYYCARVPAWSGQFDYWGQGTLVTVSS
VL: QSALTQPASVSGSPGQSITISCTGSSSDVGGYNYVSWYQQYPGKAPKLMIYDVRSRPSGVSNRFSGSKSGNTASLTISGLQAEDEADYYCTSYTSSNTLVIFGGGTKVTVL
notes: scFv
B10: A-024 (scFv format) (scFv, V domains shown)
VH: QMQLVQSGAEVKKPGSSVKVSCKASGGTFSSYAISWVRQAPGQGLEWMGWISAYNGNTNYAQKLQGRVTMTTDTSTSTAYMELRSLRSDDTAVYYCASLGSYGYTGAFDIWGQGTMATVSS
VL: B9 VL with S25T, Y41H, D52E, R54S, S55N, T91S, N97S, I101V, V108L
B11: A-001 (scFv format) (scFv, V domains shown)
VH: EVQLVESGGGLVKPGGSLRLSCAASGFTFSSYSMNWVRQAPGKGLEWVSSISSSSSYIYYADSVKGRFTISRDNAKNSLYLQMNSLRAEDTAVYYCVRSIIVQALGITSVFDIWGQGTMVTVSS
VL: AIRLTQSPSSLSASVGDRVTISCRASQIISNHLNWYQQKPGKAPKLLIYAASRLQTGVPSRFSGSGSETDYTLTISSLQPEDFATYYCQQSYSNPRTFGHGTKVEIK
notes: scFv
B12: A-008 (scFv format) (scFv, V domains shown)
VH: QLQLQESGPGLVKPSETLSLTCTVSGGSISSSGYYWGWIRQPPGKGLEWIGSIYYSGSTYYNPSLKSRVTISVDTSKNQFSLKLSSVTAADTAVYYCARHRVRFGEFDAFDIWGQGTMVTVSS
VL: QAVLTQPPSVSGAPGERVTLSCTGTSSNVGADFDVHWYQQFPGTAPRLLIFGSDNRPSGVPDRFSGSKSGTSASLAITGLQVEDEADYYCQAYDVRLSGWVFGGGTKLTVL
notes: scFv
B13: A-002 (scFv format) (scFv, V domains shown)
VH: EVQLVESGGGLIQPGGSLRLSCAASGFTVSSNYMSWVRQAPGKGLEWVSVIYSGGSTYYADSVKGRFTISRDNSKNTLYLQMNSLRAEDTAVYYCARGNPYYYGDLQVNFDYWGQGTLVTVSS
VL: QAVVTQEPSLTVSPGGTVTPTCGSSTGAVTSGNLPNWFQQKPGQAPRALIYSTSNKHSWTPARISGSLLGGKAALTLSGVQPEDEAEYYCLLYYGGAWVFGGGTKLTVL
notes: scFv
B14: A-012 (scFv format) (scFv, V domains shown)
VH: B13 VH with V5L, A24V
VL: B13 VL with P20L, G23A, N33Y, L34Y, I64F
notes: scFv
B15: A-013 (scFv format) (scFv, V domains shown)
VH: B13 VH
VL: B13 VL with P20L, G23A, G32A, N33Y, L34Y, I64F, E87D
notes: scFv
B16: A-005 (scFv format) (scFv, V domains shown)
VH: B13 VH
VL: B13 VL with G16E, P20L, G23A, N33Y, L34Y, K41R, H57D, I64F
notes: scFv
B17: A-006 (scFv format) (scFv, V domains shown)
VH: B13 VH
VL: B13 VL with P20L, G23A, N33Y, L34Y, A48P, I64F, E83D, A97D
notes: scFv

Each binder was assayed against T1, Streptavidin (UniProt P22629 37-163, limits assumed) (assay: ELISA, scFv).
T1 construct: also called negative antigen; irrelevant antigen
T1 sequence (P22629 37-163 limits assumed): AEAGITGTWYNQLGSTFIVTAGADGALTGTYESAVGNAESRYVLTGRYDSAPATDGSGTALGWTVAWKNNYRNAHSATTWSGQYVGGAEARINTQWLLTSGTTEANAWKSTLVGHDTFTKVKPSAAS
B1: no binding (tested: <0.025 or <0.05 RFU). B2: no binding (tested: <0.025 or <0.05 RFU). B3: no binding (tested: <0.025 or <0.05 RFU). B4: no binding (tested: <0.025 or <0.05 RFU). B5: no binding (tested: <0.025 or <0.05 RFU). B6: no binding (tested: <0.025 or <0.05 RFU). B7: no binding (tested: <0.025 or <0.05 RFU). B8: no binding (tested: <0.025 or <0.05 RFU). B9: no binding (tested: <0.025 or <0.05 RFU). B10: no binding (tested: <0.025 or <0.05 RFU). B11: no binding (tested: <0.025 or <0.05 RFU). B12: no binding (tested: <0.025 or <0.05 RFU). B13: no binding (tested: <0.025 or <0.05 RFU). B14: no binding (tested: <0.025 or <0.05 RFU). B15: no binding (tested: <0.025 or <0.05 RFU). B16: no binding (tested: <0.025 or <0.05 RFU). B17: no binding (tested: <0.025 or <0.05 RFU).
